By koff is commonly meant the rate constant with which the complex falls apart. As usually defined, the EC50 is the concentration at which the effect is half-maximal. As usually defined, the Kd is the concentration at which binding is half-saturated. Usually kon stands for the rate constant with which the complex forms.

Values joined by “and” are separate entries in the source; they are usually repeats but may differ in a detail not shown here. Identical values can stand only once.

Results on three molecules are retold here after patent publication US20230050972A1 (MOMENTA PHARMACEUTICALS, published 2023).

The target of experiment [1] is T1, human α11β1 expressed on the surface of CHO-K1 cells (human, UniProt Q9UKX5 23-1188). In words: cell-based or functional assay.
T1 sequence (Q9UKX5 23-1188): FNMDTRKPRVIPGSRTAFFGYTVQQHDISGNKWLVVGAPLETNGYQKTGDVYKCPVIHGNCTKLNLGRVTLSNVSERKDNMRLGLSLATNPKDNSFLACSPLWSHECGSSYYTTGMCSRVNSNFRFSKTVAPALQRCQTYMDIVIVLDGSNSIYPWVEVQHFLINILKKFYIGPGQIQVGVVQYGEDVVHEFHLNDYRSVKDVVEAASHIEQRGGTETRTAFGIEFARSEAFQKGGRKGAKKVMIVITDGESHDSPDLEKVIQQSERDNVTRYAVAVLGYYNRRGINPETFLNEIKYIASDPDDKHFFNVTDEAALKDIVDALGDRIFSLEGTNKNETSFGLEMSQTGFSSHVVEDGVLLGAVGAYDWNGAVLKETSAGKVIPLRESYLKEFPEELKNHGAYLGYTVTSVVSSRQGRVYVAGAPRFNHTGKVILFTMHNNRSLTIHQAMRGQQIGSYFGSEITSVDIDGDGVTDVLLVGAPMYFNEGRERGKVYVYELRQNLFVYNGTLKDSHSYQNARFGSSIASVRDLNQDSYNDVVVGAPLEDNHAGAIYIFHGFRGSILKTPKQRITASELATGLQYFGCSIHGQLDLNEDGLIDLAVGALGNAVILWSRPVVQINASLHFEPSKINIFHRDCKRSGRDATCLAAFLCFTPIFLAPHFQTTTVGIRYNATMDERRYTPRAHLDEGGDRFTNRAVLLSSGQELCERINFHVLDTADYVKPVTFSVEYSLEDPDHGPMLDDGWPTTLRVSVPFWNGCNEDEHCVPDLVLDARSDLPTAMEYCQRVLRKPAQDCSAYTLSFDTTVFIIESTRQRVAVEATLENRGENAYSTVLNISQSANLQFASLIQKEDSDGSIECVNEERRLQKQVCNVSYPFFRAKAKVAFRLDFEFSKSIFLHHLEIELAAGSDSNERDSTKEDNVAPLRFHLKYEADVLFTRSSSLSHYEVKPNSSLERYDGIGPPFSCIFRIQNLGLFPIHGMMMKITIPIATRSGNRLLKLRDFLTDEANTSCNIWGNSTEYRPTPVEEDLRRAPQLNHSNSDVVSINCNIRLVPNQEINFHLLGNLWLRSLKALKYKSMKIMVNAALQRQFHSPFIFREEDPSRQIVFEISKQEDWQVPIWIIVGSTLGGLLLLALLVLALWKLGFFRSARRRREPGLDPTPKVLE
Experiment [2] addresses T2, in-house generated I domain of α11β1 (human, UniProt Q9UKX5 159-349, limits assumed).
T2 construct: domain: I domain; also called human α11β1 I domain; α11β1 I Domain
T2 sequence (looked up): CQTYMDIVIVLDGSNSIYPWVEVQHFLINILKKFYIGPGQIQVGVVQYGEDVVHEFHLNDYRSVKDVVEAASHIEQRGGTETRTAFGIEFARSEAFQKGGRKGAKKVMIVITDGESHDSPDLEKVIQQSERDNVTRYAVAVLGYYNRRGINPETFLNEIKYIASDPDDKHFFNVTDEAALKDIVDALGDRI
The experiment can be described thus: SPR, single-cycle injections of 33, 100 and 300 nM over the a11b1 I Domain.

Experiment [3] addresses T3, recombinant human α11β1 (human, UniProt Q9UKX5 23-1141; P05556 21-728).
T3 construct: Coated in ELISA; ELISA and SPR material treated as one molecule; also called HIS-tagged human α11β1; integrin alpha 11 beta 1
The experiment can be described thus: SPR (Biacore T200), HIS-tagged human α11β1 captured on anti-HIS, single-cycle kinetics, 1:1 Langmuir fit. The procedure:
(§1) The affinity of antibodies for human α11β1 was measured by surface plasmon resonance assay (SPR). Affinity was measured at pH 7.6 and 25° C. with a Biacore T200 instrument. Anti-HIS antibody was immobilized on the SPR sensor surface using EDC/NHS covalent attachment. HIS-tagged human α11β1 was captured on the sensor surface and a single-cycle kinetics assay was used. Increasing concentrations of test antibody were injected in series over the sensor-bound α11β1. Dissociation was monitored for 1000 seconds. A sensor surface with only anti-HIS antibody and a series of blank injections were used to double-reference subtract the data. A 1:1 Langmuir model was fit to the data to estimate the kinetic association and dissociation constants. The affinity (equilibrium dissociation constant) of the interaction was calculated by dividing the kinetic dissociation constant by the kinetic association constant. Between injection cycles α11β1 and bound antibody were removed with an injection of 10 mM glycine at pH 1.5.
(In SPR one partner is held on a chip, and binding of the other changes the refractive index at the surface.)

Another experiment concerns the target T4, recombinant mouse α11β1 (mouse, UniProt P61622 23-1141; P09055 21-728, limits assumed).
T4 construct: also called murine α11β1
In words: ELISA on recombinant mouse α11β1. The procedure: (§2) 0.25 μg/mL of target antigen (recombinant human or mouse α11β1) was plated in a 96-well plate over night at 4° C. Plates were washed (PBS with 0.1% Tween-20), blocked (PBS with 2% BSA and 0.05% Tween-20) for 1 hour at room temperature and incubated with a range of antibody concentrations for 1 hour at room temperature. Subsequently, plates were washed and incubated with biotinylated anti-rabbit/mouse/human IgG in a 1:1000 dilution buffer and incubated for 1 hour at room temperature. After washing the plates, Streptavidin HRP was added at 1:200 in dilution buffer and incubated for 1 hour at room temperature. Ultra TMB ELISA substrate solution was added and the plates incubated for 5 minutes on a plate shaker. The reaction was stopped by adding stop solution to each well and plates were read at 450 nm.
For orientation: An ELISA detects its analyte on a solid surface through an enzyme-linked reagent.

For experiment [4], the target named is T5, α11β1 on human myofibroblasts (MF) (human, UniProt Q9UKX5 23-1188; P05556 21-798).
T5 construct: whole, on cells
T5 sequence (Q9UKX5 23-1188, chain 1 of 2): as the sequence (Q9UKX5 23-1188) above
T5 sequence (P05556 21-798, chain 2 of 2): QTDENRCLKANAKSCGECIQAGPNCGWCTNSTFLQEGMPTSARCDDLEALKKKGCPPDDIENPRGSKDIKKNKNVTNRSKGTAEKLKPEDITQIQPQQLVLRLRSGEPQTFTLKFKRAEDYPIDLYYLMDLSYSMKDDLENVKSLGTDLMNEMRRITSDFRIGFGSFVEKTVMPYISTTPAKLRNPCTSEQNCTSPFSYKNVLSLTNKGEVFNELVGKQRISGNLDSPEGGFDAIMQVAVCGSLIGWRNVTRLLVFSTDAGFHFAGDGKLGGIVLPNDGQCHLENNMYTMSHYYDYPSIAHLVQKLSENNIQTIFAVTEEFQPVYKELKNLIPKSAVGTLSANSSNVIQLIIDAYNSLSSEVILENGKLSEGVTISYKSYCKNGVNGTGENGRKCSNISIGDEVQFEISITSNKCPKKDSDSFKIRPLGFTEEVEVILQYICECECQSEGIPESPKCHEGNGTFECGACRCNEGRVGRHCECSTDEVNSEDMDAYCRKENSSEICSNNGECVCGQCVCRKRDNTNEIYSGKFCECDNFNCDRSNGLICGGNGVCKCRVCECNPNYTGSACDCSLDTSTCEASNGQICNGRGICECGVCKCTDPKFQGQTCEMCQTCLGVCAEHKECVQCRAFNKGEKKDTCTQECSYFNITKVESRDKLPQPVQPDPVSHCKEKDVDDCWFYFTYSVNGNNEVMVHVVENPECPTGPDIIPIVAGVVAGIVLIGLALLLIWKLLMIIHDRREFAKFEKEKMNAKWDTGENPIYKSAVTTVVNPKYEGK
In words: FACS titration on human myofibroblasts. Here is the method: (§3) Human Pulmonary Fibroblasts (ScienCell) were cultured in complete Fibroblast Growth Medium (ScienCell) until 80% confluent in T-150 flasks. Cells were washed and harvested using Accutase. Cells were seeded into T-150 flasks at 7,500 cells/cm² in complete FGF and cultured for 72 hours. Cells were then washed and starved in serum reduced medium for 24 hours. After starvation, cells were treated with TGFβ-1 (R&D Systems) for 72 hours. Cells were harvested using Accutase and seeded in 96-well conical bottom plates. Cells were blocked with Heat Inactived Fetal Bovine Serum (Gibco) for 30 minutes at 4° C. Cells were then incubated with anti-α11 antibodies at the doses described in each figure for 30 minutes at 4° C. A human anti-α11 antibody (Creative BioLabs) was included as a positive control as well as the appropriate IgG isotype negative controls. Cells were washed twice and incubated with PE conjugated secondary antibodies specific to the IgG class of the anti-α11 antibodies being tested for 30 minutes at 4° C. Cells were washed twice and fixed in 1% PFA for 30 minutes. Cells were acquired on a FACS Verse […]. Data were analyzed by gating on single cells and determining the geometric Mean Fluorescence Intensity (gMFI) in the PE channel for each sample.

Experiment [5] concerns the target T3, recombinant human α11β1. The experiment can be described thus: SPR, HIS-tagged human α11β1 captured by anti-HIS, antibody as analyte, single-cycle kinetics. Here is the method: as §1
The binding affinity of antibodies for the α11β1 Headpiece and α11β1 I Domain as measured by SPR is shown in FIG. 10A and FIG. 10B, respectively.

The target in experiment [6] is T1, human α11β1 expressed on the surface of …. In words: FACS titration on Human CHO-α11 cells. The procedure:
200,000 cells (wild-type CHO-K1 cells or CHO-K1 cells expressing human α11) were incubated with each antibody at desired concentrations in FACS buffer for 30 min at 4° C. Then, the cells were washed with FACS buffer and incubated with secondary antibody at 1:100 dilution for 30 minutes at 4° C. Cells were then washed and fixed with 1% PFA in PBS for 20 minutes at room temperature; washed again and read on a cytometer in FACS buffer.

Experiment [7] has the same target. In words: cell-based or functional assay. The source holds these as a separate data set.
A further experiment deals with Mouse CHO-α11 (mouse, UniProt P61622). In words: FACS titration on Mouse CHO-α11 cells.
Mouse CHO-α11, sequence (P61622 23-1188): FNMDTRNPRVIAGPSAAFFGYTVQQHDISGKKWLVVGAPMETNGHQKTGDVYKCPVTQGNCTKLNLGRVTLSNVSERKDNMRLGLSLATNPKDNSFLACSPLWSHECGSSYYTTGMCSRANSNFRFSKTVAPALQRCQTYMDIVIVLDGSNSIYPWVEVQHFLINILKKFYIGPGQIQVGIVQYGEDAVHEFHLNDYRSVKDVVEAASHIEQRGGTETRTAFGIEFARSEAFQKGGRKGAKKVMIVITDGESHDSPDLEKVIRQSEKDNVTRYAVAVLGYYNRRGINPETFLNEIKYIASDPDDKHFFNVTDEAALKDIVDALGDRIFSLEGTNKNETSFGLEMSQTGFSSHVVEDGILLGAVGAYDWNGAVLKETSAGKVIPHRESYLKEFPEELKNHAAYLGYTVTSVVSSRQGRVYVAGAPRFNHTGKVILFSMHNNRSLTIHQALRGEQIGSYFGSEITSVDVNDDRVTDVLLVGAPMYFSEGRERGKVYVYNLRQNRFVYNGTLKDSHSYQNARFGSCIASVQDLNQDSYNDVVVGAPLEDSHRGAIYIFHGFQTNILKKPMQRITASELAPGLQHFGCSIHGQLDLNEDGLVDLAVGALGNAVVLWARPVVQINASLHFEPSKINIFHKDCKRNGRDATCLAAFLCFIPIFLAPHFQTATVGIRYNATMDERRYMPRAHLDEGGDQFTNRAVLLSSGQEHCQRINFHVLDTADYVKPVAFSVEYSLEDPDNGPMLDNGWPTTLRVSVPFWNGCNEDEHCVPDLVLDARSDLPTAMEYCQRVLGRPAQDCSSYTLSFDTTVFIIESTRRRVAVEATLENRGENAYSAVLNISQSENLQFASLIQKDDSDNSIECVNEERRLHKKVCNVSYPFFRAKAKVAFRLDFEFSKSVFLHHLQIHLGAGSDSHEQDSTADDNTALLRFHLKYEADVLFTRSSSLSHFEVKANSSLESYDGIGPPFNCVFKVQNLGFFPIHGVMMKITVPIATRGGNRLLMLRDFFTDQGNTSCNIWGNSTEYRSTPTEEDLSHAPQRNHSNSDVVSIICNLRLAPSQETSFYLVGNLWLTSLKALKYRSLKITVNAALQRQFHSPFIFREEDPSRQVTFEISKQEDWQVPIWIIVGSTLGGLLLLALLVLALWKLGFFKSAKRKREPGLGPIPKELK
Experiment [8] has as its target T5, α11β1 on human myofibroblasts (MF). The experiment can be described thus: FACS on human myofibroblasts. The procedure:
as §3

Experiment [9] concerns the target T2, in-house generated I domain of α11β1. The experiment can be described thus: ELISA on the human α11β1 I domain.
Experiment [10] deals with T3, recombinant human α11β1. In words: ELISA on recombinant human α11β1. The procedure: as §2

T3 sequence (Q9UKX5 23-1141 limits assumed, chain 1 of 2): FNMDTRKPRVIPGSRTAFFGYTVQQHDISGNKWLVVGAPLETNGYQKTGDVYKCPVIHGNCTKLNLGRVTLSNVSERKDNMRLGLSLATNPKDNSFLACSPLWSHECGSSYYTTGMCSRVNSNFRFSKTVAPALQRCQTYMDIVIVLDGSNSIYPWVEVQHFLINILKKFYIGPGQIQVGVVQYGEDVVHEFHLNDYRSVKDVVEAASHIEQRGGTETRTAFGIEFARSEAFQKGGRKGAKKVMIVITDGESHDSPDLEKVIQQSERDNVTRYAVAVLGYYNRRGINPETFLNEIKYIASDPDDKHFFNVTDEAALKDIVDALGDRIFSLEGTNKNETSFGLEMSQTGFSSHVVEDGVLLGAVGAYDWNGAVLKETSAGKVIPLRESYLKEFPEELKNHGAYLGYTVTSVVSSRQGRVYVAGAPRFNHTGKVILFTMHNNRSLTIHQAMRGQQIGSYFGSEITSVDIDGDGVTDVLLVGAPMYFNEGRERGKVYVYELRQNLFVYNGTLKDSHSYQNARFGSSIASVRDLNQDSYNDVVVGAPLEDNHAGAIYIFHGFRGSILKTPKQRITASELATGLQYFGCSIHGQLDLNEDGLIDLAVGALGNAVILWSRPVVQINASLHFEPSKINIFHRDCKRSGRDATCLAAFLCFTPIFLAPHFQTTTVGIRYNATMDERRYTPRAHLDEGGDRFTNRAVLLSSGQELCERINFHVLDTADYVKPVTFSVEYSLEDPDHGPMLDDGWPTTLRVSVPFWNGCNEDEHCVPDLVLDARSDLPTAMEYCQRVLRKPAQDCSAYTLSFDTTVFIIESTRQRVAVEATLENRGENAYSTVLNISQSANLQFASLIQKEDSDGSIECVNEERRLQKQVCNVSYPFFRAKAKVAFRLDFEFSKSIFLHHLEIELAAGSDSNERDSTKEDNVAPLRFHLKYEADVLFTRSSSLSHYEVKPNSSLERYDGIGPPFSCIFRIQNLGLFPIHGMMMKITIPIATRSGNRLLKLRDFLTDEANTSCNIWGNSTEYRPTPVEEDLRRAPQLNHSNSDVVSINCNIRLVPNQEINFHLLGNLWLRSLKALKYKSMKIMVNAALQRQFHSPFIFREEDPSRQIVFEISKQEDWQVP
T3 sequence (P05556 21-728 limits assumed, chain 2 of 2): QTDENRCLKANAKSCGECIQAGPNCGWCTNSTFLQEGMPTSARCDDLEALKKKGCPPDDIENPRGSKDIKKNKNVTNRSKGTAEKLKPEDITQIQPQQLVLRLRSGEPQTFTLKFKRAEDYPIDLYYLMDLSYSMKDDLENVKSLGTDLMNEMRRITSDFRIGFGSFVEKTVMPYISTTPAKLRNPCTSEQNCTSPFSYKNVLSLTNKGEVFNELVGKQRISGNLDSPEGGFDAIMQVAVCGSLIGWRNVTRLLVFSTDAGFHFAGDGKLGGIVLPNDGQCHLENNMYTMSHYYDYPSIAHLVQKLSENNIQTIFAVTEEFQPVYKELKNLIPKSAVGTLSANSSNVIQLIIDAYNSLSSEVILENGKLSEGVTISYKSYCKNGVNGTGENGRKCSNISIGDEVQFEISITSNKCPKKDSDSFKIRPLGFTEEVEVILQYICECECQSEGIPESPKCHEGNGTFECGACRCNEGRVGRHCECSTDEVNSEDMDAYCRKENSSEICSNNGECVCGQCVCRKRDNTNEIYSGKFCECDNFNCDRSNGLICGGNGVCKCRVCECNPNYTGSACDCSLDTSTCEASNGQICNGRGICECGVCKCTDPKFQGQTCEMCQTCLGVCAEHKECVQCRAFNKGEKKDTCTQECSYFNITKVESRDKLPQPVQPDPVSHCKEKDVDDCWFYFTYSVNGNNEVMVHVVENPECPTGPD

B1: A11B1_16E10 (antibody, V domains shown)
VH: QSLEESGGDLVKPGASLTLTCRVSGFSFSSSYYMCWVRQAPGKGLEWIACIGTTRGSTYYATWAKGRFTISKISSTTVTLQMTSLTDADTATYFCARDATGYRINTIGLYFNLWGPGTLVTVSS
VL: AFELTQTPSSVEAAVGGTPTIKCQASQTIYSYLSWYQQKPGQPPKLLIYEASKLASGVPSRFSGSGSGTDYTLTISDLECADAATYYCQSYHGTASTEYNTFGGGTEVVVRG
notes: recombinant rabbit IgG, full chains
As to B1, in experiment [1], the “IC50, inhibition of adhesion of CHO-α11 cells to rat tail type I collagen” value worked out at 0.39 nM. For the same molecule, the binding result in experiment [2] was “no binding (tested: 300 nM)”; with recombinant mouse α11β1, “no binding”. Further, in the experiment with recombinant human α11β1 [3], the off-rate constant (koff) was 0.000234 s⁻¹. For the same molecule, the EC50 was 0.051 µg/mL and 0.3 nM in experiment [4]; 0.35 nM in experiment [6]. Also, in the experiment with recombinant human α11β1 [5], the Kd came out at 0.048 nM.

B2: 79E3E3 (antibody, V domains shown)
VH: QIQLVQSGPEVKKPGESVKISCKASGYTFTDYAMNWVKQAPGNGLKWMGWINTQTGKPTYADDFKQRFVFSLETSARTTYLQINNLNIEDTATYFCTRLGTGNTKGFAYWGQGTLVTVSS
VL: DILINQSPASLTVSAGERVTMSCKSSQSLLYSENNQDYLAWYQQKPGQFPKLLIYGASNRHTGVPDRFTGSGSGTDFTLTISSVQAEDLADYYCEQTYRYPFTFGSGTKLEIK
notes: rat hybridoma mAb
For B2, in the experiment with recombinant human α11β1 [3], the koff came to 0.000108 s⁻¹. In addition, the kon in the experiment with recombinant human α11β1 [3] was 1.07e+07 M⁻¹ s⁻¹. The binding result in the experiment with recombinant mouse α11β1 is recorded as “binds”. Further, the 50% effective concentration (EC50) in experiment [4] was 0.5 µg/mL and 3.35 nM; with Mouse CHO-α11 it was 3.5 nM; in experiment [6] it was 7.3 nM. The “IC50 of blocking cell adhesion to type I collagen” value in experiment [7] is 9.4 nM. Moreover, in the experiment with recombinant human α11β1 [5], the Kd came out at 0.01 nM.

B3: 24E4G6 (antibody, V domains shown)
VH: EVQLVESGGSLVQPGGSLKLSCVASGYTFSNYWMDWVRQSPGKSLEWIGEINTDGRRTNYAPSIKDRFTISRDNAKSTLYLQMSNVKSDDTAIYYCTILRVYPHYFDYWGQGVMVTVSS
VL: DVVMTQTPPSLSVAIGQSVSISCKSSQSLVYSDGETYLHWFLQSPGRSPKRLIYHVSNLGSGVPDRFSGTGSLTDFTLRISRVEAEDLGVYYCAQTTHFPPTFGAGTKLELK
notes: rat hybridoma mAb
For B3, the binding result in experiment [8] is recorded as “binds”; in experiment [9] it was “no binding (tested: 2 µg/ml)”; in the experiment with recombinant human α11β1 [10], “binds”.
